Columns and labels:
[1] = test system: specific IgG antibody; design: species or system rabbits; conditions: rabbit, in vivo
[2] = test system: mice; conditions: mouse, in vivo, ip
[3] = rabbit, in vivo, iv

Tetanus Toxoid
Immunogenicity [1]: Immunogenic | Toxicity (class) [2]: Nontoxic (key: Nontoxic: a minimum of 50 ug of antigen administered intraperitoneally resulted in no mortality) | Pyrogenicity (highest dose with rise in body temperature ≤ +0.3° C.) [3]: 50 ug/ml/kg body weight

— patent publication US4771127A (priority 1985, dated 1988)
